The target of assay [1] is … (SEQ ID NO: 1) presented by HLA-A*0201 on peptide-pulsed cells (human). Nature of the assay: cell-based or functional assay.
Assay [2] has as its target … (SEQ ID NO: 16) presented by HLA-A*0201 on peptide-pulsed cells (human). Nature of the assay: cell-based or functional assay.
The target of assay [3] is … (SEQ ID NO: 18) presented by HLA-A*0201 on peptide-pulsed cells (human). Nature of the assay: cell-based or functional assay.
The target of assay [4] is … (SEQ ID NO: 2) presented by HLA-A*0201 on cells (human). Nature of the assay: cell-based or functional assay.
For assay [5], the target named is T1, LRPAP1 (signal peptide) peptide on HLA-A*02:01 (human).
T1 peptide: FLGPWPAAS
Nature of the assay: titration of short peptide on HLA-A*0201 positive T2 cells or EBV-JY cells; cytokine secretion by the LRPAP1-specific T cell clone (FIG. 1d, 1e); T cell clone or line.

In assay [6] the target is T2, LRPAP1 (signal peptide), V-variant: C-terminal serine replaced by valine peptide on HLA-A*02:01 (human).
T2 peptide: FLGPWPAAV
The assay is described as above.

Assay [7] addresses T3, LRPAP1 (signal peptide), I-variant at position 9 peptide on HLA-A*02:01 (human).
T3 peptide: FLGPWPAAI
Described as above.

Assay [8] concerns the target T4, LRPAP1 (signal peptide), L-variant at position 9 peptide on HLA-A*02:01 (human).
T4 peptide: FLGPWPAAL
The assay is described as above.

B1: TCR of the LRPAP1-specific T cell clone 1A8 (TCR, V domains shown)
Valpha: RKEVEQDPGPFNVPEGATVAFNCTYSNSASQSFFWYRQDCRKEPKLLMSVYSSGNEDGRFTAQLNRASQYISLLIRDSKLSDSATYLCVVMGYGQNFVFGPGTRLSVLP
Vbeta: GAVVSQHPSWVICKSGTSVKIECRSLDFQATTMFWYRQFPKQSLMLMATSNEGSKATYEQGVEKDKFLINHASLTLSTLTVTSAHPEDSSFYICSAMGRQSTDTQYFGPGTRLTVL
For B1, the EC50 of the T cell response to peptide-pulsed HLA-A*0201 positive cells (functional T cell avidity) in assay [1] came out at 0.1 µg/mL; in assay [2], 0.7 µg/mL; in assay [3] it was 3.7 µg/mL; in assay [4], 1.9 µg/mL. This molecule also registered a T cell activation, V-peptide against S-peptide in assay [1] of 19 fold. The EC50 of peptide in assay [5] was 1.9 µg/mL; in assay [6], 0.1 µg/mL; in assay [7], 0.7 µg/mL; in assay [8], 3.7 µg/mL.

The values are drawn from patent publication US20230035037A1 (published 2023).
